# According to patent US20090010925 (published 2009):
# Positions count from the first letter of the chain named.
# B1: Y0313-2 (antibody, V domains shown)
# VH: EVQLVESGGGLVQPGGSLRLSCAASGYDFTHYGMNWVRQAPGKGLEWVGWINTYTGEPTYAADFKRRFTFSLDTSKSTAYLQMNSLRAEDTAVYYCAKYPHYYVNERKSHWYFDVWGQGTL
# VL: DIQLTQSPSSLSASVGDRVTITCRANEQLSNYLNWYQQKPGKAPKVLIYFTSSLHSGVPSRFSGSGSGTDFTLTISSLQPEDFATYYCQQYSTVPWTFGQGTKVEIKR
# B2: Y0261-6 (antibody, V domains shown)
# VH: B1 VH with D28T, H31N, V104L, N105K, E106D, R107K
# VL: B1 VL
# B3: Y0239-12 (antibody, V domains shown)
# VH: B1 VH with D28T, H31N, V104A, N105H, R107K
# VL: B1 VL
# B4: Y0242-1 (antibody, V domains shown)
# VH: EVQLVESGGGLVQPGGSLRLSCAASGYTFTNYGMNWVRQAPGKGLEWVGWINTWTGEPTYAADFKRRFTFSLDTSKSTAYLQMNSLRAEDTAVYYCAKYPHYYGSSHWYFDVWGQGTL
# VL: B1 VL
# B5: Y0239-2 (antibody, V domains shown)
# VH: B1 VH with D28T, H31N, V104K, E106D, R107K, K108S
# VL: B1 VL
# B6: Y0240-1 (antibody, V domains shown)
# VH: B1 VH with D28T, H31N, V104L, N105T, E106D, R107H
# VL: B1 VL
# B7: Y0241-7 (antibody, V domains shown)
# VH: B4 VH with T28D, F29W, M34I, W54Y
# VL: B1 VL
# B8: Y0241-6 (antibody, V domains shown)
# VH: B4 VH with T28D, F29Y, M34I, W54Y
# VL: B1 VL
# B9: Y0239-19 (antibody, V domains shown)
# VH: B1 VH with D28T, H31N
# VL: B1 VL
# Biological target: T1, VEGF(8-109) (human, UniProt P15692)
# T1 chain: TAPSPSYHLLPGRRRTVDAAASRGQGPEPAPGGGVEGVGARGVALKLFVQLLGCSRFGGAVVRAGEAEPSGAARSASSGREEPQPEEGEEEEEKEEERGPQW
# Test: SPR, 25C
row,Binder,Kd [pM]
1,B1,360
2,B2,600
3,B3,600
4,B4,1800
5,B5,4600
6,B6,500
7,B7,3000
8,B8,2700
9,B9,300
